B1: WD repeat-containing protein slp1 (Schizosaccharomyces pombe (strain ATCC 38366 / 972)), P78972 (parent)
chain: MEIAGNSSTISPTFSTPTKKRNLVFPNSPITPLHQQALLGRNGRSSKRCSPKSSFIRNSPKIDVVNTDWSIPLCGSPRNKSRPASRSDRFIPSRPNTANAFVNSISSDVPFDYSESVAEACGFDLNTRVLAFKLDAPEAKKPVDLRTQHNRPQRPVVTPAKRRFNTTPERVLDAPGIIDDYYLNLLDWSNLNVVAVALERNVYVWNADSGSVSALAETDESTYVASVKWSHDGSFLSVGLGNGLVDIYDVESQTKLRTMAGHQARVGCLSWNRHVLSSGSRSGAIHHHDVRIANHQIGTLQGHSSEVCGLAWRSDGLQLASGGNDNVVQIWDARSSIPKFTKTNHNAAVKAVAWCPWQSNLLATGGGTMDKQIHFWNAATGARVNTVDAGSQVTSLIWSPHSKEIMSTHGFPDNNLSIWSYSSSGLTKQVDIPAHDTRVLYSALSPDGRILSTAASDENLKFWRVYDGDHVKRPIPITKTPSSSITIR
partner: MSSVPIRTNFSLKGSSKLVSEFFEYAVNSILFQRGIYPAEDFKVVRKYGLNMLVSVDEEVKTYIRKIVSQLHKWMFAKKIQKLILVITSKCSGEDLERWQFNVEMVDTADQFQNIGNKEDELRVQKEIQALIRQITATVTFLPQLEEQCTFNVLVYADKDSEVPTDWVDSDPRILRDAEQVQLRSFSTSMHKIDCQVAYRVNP

Variants of: B1
Settings: with mad2_schpo mad2, O14417

Row | effect of a mutation on the interaction | Variant
1 | disrupting interaction | A131P;F132Y

— IntAct's records for PubMed 9461438
